Measured values published in publication PMC7687367 (Immunity, 2020).

Biological target: T1, SARS-CoV-2 RBD, His-tagged, for antibody binding studies (SARS-CoV-2, UniProt P0DTC2)
T1 construct: source: HEK293F, transient, purified from supernatant (Ni-NTA agarose)
Experiment: BLI
Conditions: both partners purified

B1: COVA1-16 VH R100bS mutant (antibody, V domains shown)
VH: QVQLVQSGAEVKKPGASVKVSCKASGYTFTSYYMHWVRQAPGQGLEWMGIINSSGGSTSYAQKFQGRVTMTRDTSTSTVYMELSSLRSEDTAVYYCARPPRNYYDSSGYYQRAEYFQHWGQGTLVTVSS
VL: DIQLTQSPSSLSASVGDRVTITCQASQDISNYLNWYQQRPGKAPKLLIYDASNLETGVPSRFSGSGSGTDFTFTISSLQPEDIATYYCQQYDNPPLTFGGGTKLEIK
binding result: binds
